Source: the Immune Epitope Database (IEDB)

Columns and labels:
Conditions in all cases: source organism: Influenza A virus
HLA-A*26:01 [1] = test: IEDB peptide-MHC binding, purified MHC/competitive/fluorescence; ≥ and ≤ were set here for values at or beyond the usual limits of such assays
HLA-A*29:02 [2] = test: as above
HLA-A*30:02 [3] = test: as above
HLA-A*23:01 = test: IEDB peptide-MHC binding, purified MHC/competitive/radioactivity; ≥ and ≤ were set here for values at or beyond the usual limits of such assays
HLA-A*24:02 = test: as above
HLA-A*02:03 [4] = test: IEDB peptide-MHC binding, purified MHC/competitive/fluorescence; ≥ and ≤ were set here for values at or beyond the usual limits of such assays
HLA-A*02:06 [5] = test: as above
HLA-A*68:02 [6] = test: as above
HLA-A*02:02 = test: IEDB peptide-MHC binding, purified MHC/competitive/radioactivity; ≥ and ≤ were set here for values at or beyond the usual limits of such assays
HLA-B*18:01 = test: IEDB peptide-MHC binding, purified MHC/competitive/fluorescence; ≥ and ≤ were set here for values at or beyond the usual limits of such assays
HLA-B*40:01 [7] = test: as above
HLA-B*44:03 [8] = test: as above
HLA-B*40:02 [9] = test: IEDB peptide-MHC binding, purified MHC/competitive/radioactivity; ≥ and ≤ were set here for values at or beyond the usual limits of such assays
HLA-B*44:02 = test: as above
HLA-B*45:01 [10] = test: as above
HLA-A*02:03 [11] = test: as above
HLA-A*03:01 [12] = test: IEDB peptide-MHC binding, purified MHC/competitive/fluorescence; ≥ and ≤ were set here for values at or beyond the usual limits of such assays
HLA-A*11:01 [13] = test: as above
HLA-A*31:01 [14] = test: IEDB peptide-MHC binding, purified MHC/competitive/radioactivity; ≥ and ≤ were set here for values at or beyond the usual limits of such assays
HLA-A*33:01 = test: as above
HLA-A*68:01 [15] = test: as above
HLA-A*02:06 [16] = test: as above
HLA-A*31:01 [17] = test: IEDB peptide-MHC binding, purified MHC/competitive/fluorescence; ≥ and ≤ were set here for values at or beyond the usual limits of such assays
HLA-A*68:01 [18] = test: as above
HLA-A*03:01 [19] = test: IEDB peptide-MHC binding, purified MHC/competitive/radioactivity; ≥ and ≤ were set here for values at or beyond the usual limits of such assays
HLA-A*11:01 [20] = test: as above
HLA-A*01:01 = test: IEDB peptide-MHC binding, purified MHC/competitive/fluorescence; ≥ and ≤ were set here for values at or beyond the usual limits of such assays
HLA-A*26:01 [21] = test: IEDB peptide-MHC binding, purified MHC/competitive/radioactivity; ≥ and ≤ were set here for values at or beyond the usual limits of such assays
HLA-A*29:02 [22] = test: as above
HLA-A*30:02 [23] = test: as above
HLA-B*40:02 [24] = test: IEDB peptide-MHC binding, purified MHC/competitive/fluorescence; ≥ and ≤ were set here for values at or beyond the usual limits of such assays
HLA-B*45:01 [25] = test: as above
HLA-B*44:03 [26] = test: IEDB peptide-MHC binding, purified MHC/competitive/radioactivity; ≥ and ≤ were set here for values at or beyond the usual limits of such assays
HLA-B*40:01 [27] = test: as above
HLA-A*68:02 [28] = test: as above

In the case of VSDGGPNLY, the IC50 (HLA-A*26:01 [1]) is reported as 25700 nM, the IC50 (HLA-A*29:02 [2]) is reported as 2120 nM and the IC50 (HLA-A*30:02 [3]) is reported as 2210 nM.

With SWPDGAELPF the IC50 (HLA-A*23:01) was 469 nM and the IC50 (HLA-A*24:02) was 778 nM.

In the case of QLMWALGENMA, the IC50 (HLA-A*02:03 [4]) is reported as 1350 nM, the IC50 (HLA-A*02:06 [5]) is reported as 24400 nM and the IC50 (HLA-A*68:02 [6]) is reported as 2270 nM. For the same sequence, the IC50 (HLA-A*02:02) was 357 nM.

Sequence CEKLEQSGL has an IC50 (HLA-B*18:01) of 43100 nM, an IC50 (HLA-B*40:01 [7]) of 1490 nM and an IC50 (HLA-B*44:03 [8]) of 2960 nM. For the same sequence, the IC50 (HLA-B*40:02 [9]) was 164 nM, the IC50 (HLA-B*44:02) was 154 nM and the IC50 (HLA-B*45:01 [10]) was 359 nM.

For RTMAWTVVNSI, the IC50 (HLA-A*02:06 [5]) was 4510 nM, the IC50 (HLA-A*68:02 [6]) was 1520 nM and the IC50 (HLA-A*02:02) was 126 nM. For the same sequence, the IC50 (HLA-A*02:03 [11]) was 70 nM.

RMVLSAFDER gave an IC50 (HLA-A*03:01 [12]) of 5840 nM, an IC50 (HLA-A*11:01 [13]) of 2240 nM and an IC50 (HLA-A*31:01 [14]) of 336 nM. For the same sequence, the IC50 (HLA-A*33:01) was 897 nM and the IC50 (HLA-A*68:01 [15]) was 631 nM.

Work on QIAILVTTV yielded an IC50 (HLA-A*68:02 [6]) of 2220 nM, an IC50 (HLA-A*02:02) of 150 nM and an IC50 (HLA-A*02:03 [11]) of 73 nM. It also gave an IC50 (HLA-A*02:06 [16]) of 691 nM.

Work on TLARSICEK yielded an IC50 (HLA-A*31:01 [17]) of 8120 nM, an IC50 (HLA-A*68:01 [18]) of 1460 nM and an IC50 (HLA-A*03:01 [19]) of 127 nM. The IC50 (HLA-A*11:01 [20]) was 276 nM.

Work on TFEFTSFFY yielded an IC50 (HLA-A*01:01) of 12000 nM, an IC50 (HLA-A*26:01 [21]) of 399 nM and an IC50 (HLA-A*29:02 [22]) of 0.1 nM. The IC50 (HLA-A*30:02 [23]) was 422 nM.

LLFLKVPA gave an IC50 (HLA-A*02:06 [5]) of 13300 nM, an IC50 (HLA-A*68:02 [6]) of 23000 nM and an IC50 (HLA-A*02:02) of 133 nM. The IC50 (HLA-A*02:03 [11]) was 279 nM.

For SFSFGGFTFK, the IC50 (HLA-A*03:01 [19]) was 188 nM, the IC50 (HLA-A*11:01 [20]) was 160 nM and the IC50 (HLA-A*31:01 [14]) was 82 nM. It also gave an IC50 (HLA-A*33:01) of 168 nM and an IC50 (HLA-A*68:01 [15]) of 427 nM.

For AEKPKFLPDLY, the IC50 (HLA-B*18:01) was 34700 nM, the IC50 (HLA-B*40:01 [7]) was 10900 nM and the IC50 (HLA-B*40:02 [24]) was 4780 nM. The IC50 (HLA-B*45:01 [25]) was 2930 nM, the IC50 (HLA-B*44:02) was 412 nM and the IC50 (HLA-B*44:03 [26]) was 1440 nM.

With AESRKLLLI the IC50 (HLA-B*18:01) was 33100 nM, the IC50 (HLA-B*40:01 [27]) was 535 nM and the IC50 (HLA-B*40:02 [9]) was 220 nM. The IC50 (HLA-B*44:02) was 55 nM, the IC50 (HLA-B*44:03 [26]) was 179 nM and the IC50 (HLA-B*45:01 [10]) was 167 nM.

With FVEALARSI the IC50 (HLA-A*02:02) was 35 nM, the IC50 (HLA-A*02:03 [11]) was 457 nM and the IC50 (HLA-A*02:06 [16]) was 668 nM. For the same sequence, the IC50 (HLA-A*68:02 [28]) was 984 nM.
